Experiment [1] addresses Nedd8 (endogenous protein of 293T cells) (human, UniProt Q15843 1-76). The experiment in a line: anti-Nedd8 immunoblot of anti-HA immune complexes from 293T cells, non-reducing SDS-PAGE.
Experiment [2] addresses ubiquitin (endogenous protein of 293T cells) (human, UniProt P0CG48 1-76). The experiment in a line: LC/MS/MS (LTQ-Orbitrap) of Flag-HA-Uba6˜Ub purified from mammalian cells.

The record followed here is patent US20100047255A1 (Harvard, published 2010).

Nedd8 (endogenous protein of 293T cells), sequence (Q15843 1-76 limits assumed): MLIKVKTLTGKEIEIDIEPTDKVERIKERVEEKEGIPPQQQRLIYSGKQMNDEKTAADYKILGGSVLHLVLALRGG

B1: Flag-HA-Uba6^C625S (enzyme)
chain: MEGSEPVAAHQGEKASCSSWGTGSTNKNLPIMSTASVEIDDALYSRQRYVLGDTAMQKMAKSHVFLSGMGGLGLEIAKNLVLAGIKAVTIHDTEKCQAWDLGTNFFLSEDDVVNKRNRAEAVLKHIAELNPYVHVTSSSAPFNETTDLSFLDKYQCVVLTEMKLPLQKKINDFCRSQCPPIKFISADVHGIWSRLFCDFGDEFEVLDTTGEEPKEIFISNITQTNPGIVTCLENHPHKLETGQFLTFREINGMTGLNGSIQQITVISPFSFSIGDTTELEPYLHGGIAVQVKTPKTVFFESLERQLKHPKCLIVDFSNPEAPLEIHTAMLALDQFQEKYSRKPNVGCQQDSEELLKLATSISETLEEKPDVNADIVHWLSWTAQGFLSPLAAAVGGVASQEVLKAVTGKFSPLCQWLYLEAADIVESLGKPECEEFLPRGDRYDALRACIGDTLCQKLQNLNIFLVGCGAIGCEMLKNFALLGVGTSKEKGMITVTDPDLIEKSNLNRQFLFRPHHIQKPKSYTAADATLKINSQIKIDAHLNKVCPTTETIYNDEFYTKQDVIITALDNVEARRYVDSRCLANLRPLLDSGTMGTKGHTEVIVPHLTESYNSHRDPPEEEIPFSTLKSFPAAIEHTIQWARDKFESSFSHKPSLFNKFWQTYSSAEEVLQKIQSGHSLEGCFQVIKLLSRRPRNWSQCVELARLKFEKYFNHKALQLLHCFPLDIRLKDGSLFWQSPKRPPSPIKFDLNEPLHLSFLQNAAKLYATVYCIPFAEEDLSADALLNILSEVKIQEFKPSNKVVQTDETARKPDHVPISSEDERNAIFQLEKAILSNEATKSDLQMAVLSFEKDDDHNGHIDFITAASNPRAKMYSIEPADRFKTKRIAGKIIPAIATTTATVSGLVALEMIKVTGGYPFEAYKNCFLNLAIPIVVFTETTEVRKTKIRNGISFTIWDRWTVHGKEDFTLLDFINAVKEKYGIEPTMVVQGVKMLYVPVMPGHAKRLKLTMHKLVKPTTEKKYVDLTVSFAPDIDGDEDLPGPPVRYYFSHDTD
notes: Catalytic cysteine changed to serine; also called C625S mutant; Flag-HA-Ub6^C625S; not shown: N-terminal Flag-HA tag
B1: the binding result in experiment [1] is on record as “no binding”.

B2: Flag-HA-Uba6 (enzyme)
chain: MEGSEPVAAHQGEKASCSSWGTGSTNKNLPIMSTASVEIDDALYSRQRYVLGDTAMQKMAKSHVFLSGMGGLGLEIAKNLVLAGIKAVTIHDTEKCQAWDLGTNFFLSEDDVVNKRNRAEAVLKHIAELNPYVHVTSSSAPFNETTDLSFLDKYQCVVLTEMKLPLQKKINDFCRSQCPPIKFISADVHGIWSRLFCDFGDEFEVLDTTGEEPKEIFISNITQTNPGIVTCLENHPHKLETGQFLTFREINGMTGLNGSIQQITVISPFSFSIGDTTELEPYLHGGIAVQVKTPKTVFFESLERQLKHPKCLIVDFSNPEAPLEIHTAMLALDQFQEKYSRKPNVGCQQDSEELLKLATSISETLEEKPDVNADIVHWLSWTAQGFLSPLAAAVGGVASQEVLKAVTGKFSPLCQWLYLEAADIVESLGKPECEEFLPRGDRYDALRACIGDTLCQKLQNLNIFLVGCGAIGCEMLKNFALLGVGTSKEKGMITVTDPDLIEKSNLNRQFLFRPHHIQKPKSYTAADATLKINSQIKIDAHLNKVCPTTETIYNDEFYTKQDVIITALDNVEARRYVDSRCLANLRPLLDSGTMGTKGHTEVIVPHLTESYNSHRDPPEEEIPFCTLKSFPAAIEHTIQWARDKFESSFSHKPSLFNKFWQTYSSAEEVLQKIQSGHSLEGCFQVIKLLSRRPRNWSQCVELARLKFEKYFNHKALQLLHCFPLDIRLKDGSLFWQSPKRPPSPIKFDLNEPLHLSFLQNAAKLYATVYCIPFAEEDLSADALLNILSEVKIQEFKPSNKVVQTDETARKPDHVPISSEDERNAIFQLEKAILSNEATKSDLQMAVLSFEKDDDHNGHIDFITAASNPRAKMYSIEPADRFKTKRIAGKIIPAIATTTATVSGLVALEMIKVTGGYPFEAYKNCFLNLAIPIVVFTETTEVRKTKIRNGISFTIWDRWTVHGKEDFTLLDFINAVKEKYGIEPTMVVQGVKMLYVPVMPGHAKRLKLTMHKLVKPTTEKKYVDLTVSFAPDIDGDEDLPGPPVRYYFSHDTD
notes: also called HA-Flag-Uba6; wild-type Uba6 with N-terminal Flag-HA tag; not shown: N-terminal Flag-HA tag
Take B2: the binding result in experiment [2] is given as “binds”.
